PMC6780499, “Characterization, Recombinant Production and Structure-Function Analysis of NvCI, A Picomolar Metallocarboxypeptidase Inhibitor from the Marine Snail Nerita versicolor” (Marine Drugs, 2019)
No end group written: not given here.

Assays:
Format in all cases: biochemical
hCPB = target: T1, hCPB (Homo sapiens, UniProt P15086); assay: Ki determination, tight-binding inhibition of metallocarboxypeptidase; conditions: tight-binding equation fit, equilibrium conditions; substrate AAFA 0.1mM; preincubation 15 min; 37 °C; means (n = 3) ± SD
T1 sequence (P15086 111-417): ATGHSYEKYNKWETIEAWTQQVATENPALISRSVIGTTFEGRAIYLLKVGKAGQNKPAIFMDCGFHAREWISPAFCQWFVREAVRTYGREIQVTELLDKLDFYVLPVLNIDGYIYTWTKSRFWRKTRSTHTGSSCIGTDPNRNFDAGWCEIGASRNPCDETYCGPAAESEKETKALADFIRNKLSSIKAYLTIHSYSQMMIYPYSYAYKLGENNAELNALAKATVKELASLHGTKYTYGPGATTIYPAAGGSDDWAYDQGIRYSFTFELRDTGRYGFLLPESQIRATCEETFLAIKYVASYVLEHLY
Method: (§1) Inhibitory activities against CPA- and CPB-type forms (bovine and human variants of CPA1, CPA2, CPA4, CPB1, and TAFI) were assayed for all extracts, subject to the experimental conditions that enzyme (E), substrate (S) and inhibitor (I) concentrations as well as the [I]/[E] ratio and preincubation time followed the requirements for tight-binding inhibitor assays. Similar approaches were followed to measure the activities of proteases of different catalytic types, like pepsin, papain, trypsin and subtilisin [45, 46, 47, 48]. All assays were performed in triplicate at 25 °C in a multiplexed manner. For 96-well assays an iEMS spectrophotometer reader/dispenser FM (Labsystems, Finland) was used with a final reaction volume of 250 μL. For cuvette assays, a Cary 400 Bio spectrophotometer (Varian Inc., Palo Alto, CA, USA) spectrophotometer was used with a final reaction volume of 1 ml. The reactions were followed at 5 s intervals for 5 min and recorded as initial velocities. In the protease inhibition assays, mixtures of activity buffer, biological sample and enzyme were preincubated at 25 °C for 10min, before substrate addition. The assay conditions were as follows: for CPA-like enzymes, 7.0nM CPA, 0.1mM AAFP substrate in 20mM Tris-HCl pH 7.5, 500mMNaCl, 1% v/v dimethyl sulfoxide (DMSO), 0.05% w/v BRIJ-35 was used. For CPB-like enzymes, CPB 3.0nM CPB, 0.1mM AAFA substrate and activity buffer of 20 mM Tris-HCl pH [50].
(§2) The Ki values of natural and recombinant NvCI against bCPA1, hCPA1, hCPA2, rat CPA3, hCPA4, hCPB1, bTAFI, hTAFI, hCPD and hCPZ were determined by measuring the enzymatic residual activity (Vi/V0 = a) at different inhibitor concentrations and using a fixed enzyme and substrate concentrations as described above, where vi and v0 are the fraction of enzymatic activity in the presence and absence of inhibitor, respectively, in terms of initial velocities. The determination of Ki values was carried out on equilibrium conditions ([E0]/Ki ≤ 10), using a previously determined preincubation time of 15 min, required to establish enzyme-inhibitor equilibrium. Working temperature was 37 °C. The best estimates of Ki values were obtained by fitting the experimental data to the equation for tight-binding inhibitors by non-linear regression using the GraphPad Prisma 5 software (GraphPad Software, Inc., San Diego, CA, USA) at p < 0.05. The real Ki values against each of these A/B-type MCPs were calculated according to the equation described by Morrison and Copeland [19, 20].

hCPD = target: T2, hCPD (Homo sapiens, UniProt O75976); assay: as above; conditions: NI: No inhibitory activity detected for the [I]0 range from 1 nM to 1 mM
T2 sequence (O75976 32-1380): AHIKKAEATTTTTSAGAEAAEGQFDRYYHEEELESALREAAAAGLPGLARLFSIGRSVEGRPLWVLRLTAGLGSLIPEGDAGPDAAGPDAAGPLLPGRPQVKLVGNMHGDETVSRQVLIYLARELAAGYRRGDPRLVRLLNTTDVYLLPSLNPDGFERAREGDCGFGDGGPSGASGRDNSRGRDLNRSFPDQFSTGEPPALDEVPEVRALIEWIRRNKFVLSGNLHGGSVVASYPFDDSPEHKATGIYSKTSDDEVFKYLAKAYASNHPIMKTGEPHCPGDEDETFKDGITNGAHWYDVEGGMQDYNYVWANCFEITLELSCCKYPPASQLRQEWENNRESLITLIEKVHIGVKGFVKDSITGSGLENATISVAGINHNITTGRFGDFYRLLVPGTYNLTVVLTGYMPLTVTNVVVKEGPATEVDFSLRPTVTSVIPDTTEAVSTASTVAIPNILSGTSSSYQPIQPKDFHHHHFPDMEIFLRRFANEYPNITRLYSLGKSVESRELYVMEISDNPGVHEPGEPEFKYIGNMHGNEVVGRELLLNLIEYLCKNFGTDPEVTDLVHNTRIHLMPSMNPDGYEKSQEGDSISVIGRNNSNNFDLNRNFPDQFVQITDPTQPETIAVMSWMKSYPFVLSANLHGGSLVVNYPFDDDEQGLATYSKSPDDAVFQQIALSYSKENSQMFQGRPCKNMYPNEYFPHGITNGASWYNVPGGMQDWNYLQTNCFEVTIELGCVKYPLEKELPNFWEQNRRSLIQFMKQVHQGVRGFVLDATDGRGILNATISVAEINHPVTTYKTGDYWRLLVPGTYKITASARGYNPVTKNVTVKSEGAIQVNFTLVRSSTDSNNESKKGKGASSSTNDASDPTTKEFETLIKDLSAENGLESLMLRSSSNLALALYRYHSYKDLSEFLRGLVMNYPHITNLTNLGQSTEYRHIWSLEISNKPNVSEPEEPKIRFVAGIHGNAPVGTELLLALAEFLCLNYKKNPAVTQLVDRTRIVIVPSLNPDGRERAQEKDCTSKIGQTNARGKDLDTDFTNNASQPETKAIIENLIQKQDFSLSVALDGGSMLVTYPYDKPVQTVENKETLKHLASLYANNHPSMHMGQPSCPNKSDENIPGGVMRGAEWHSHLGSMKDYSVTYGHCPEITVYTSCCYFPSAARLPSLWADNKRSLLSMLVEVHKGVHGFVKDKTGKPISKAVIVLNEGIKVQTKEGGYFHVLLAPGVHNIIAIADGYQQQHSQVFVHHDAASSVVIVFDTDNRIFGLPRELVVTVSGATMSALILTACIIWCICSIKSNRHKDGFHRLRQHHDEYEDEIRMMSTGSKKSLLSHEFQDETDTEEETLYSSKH
Method: as §1, §2

[1] = test system: serine, cysteine and aspartic proteases; assay: Inhibition of proteases of other catalytic types; conditions: even at tenfold excess; pepsin, papain, trypsin and subtilisin assays, 25 °C, triplicate
Method: as §1, with “For CPB-like enzymes, CPB 3.0nM CPB, 0.1mM AAFA substrate and activity buffer of 20 mM Tris-HCl pH [50].” left out

Ki (hCPB): 0.000111 ± 4.7e-06 µM
Ki (hCPD): > 1000 µM
Substance: NvCI: 53-residue, three-disulphide proteinaceous metallocarboxypeptidase inhibitor from the marine snail Nerita versicolor; major isoform; UniProt P86912 (FHVPDDRPCINPGRCPLVPDATCTFVCKAADNDFGYECQHVWTFEGQRVGCYA; disulfide (positions not given here); also: three disulphides, pairing not given here; UniProt P86912 1-53, looked up)
inhibition of serine, cysteine and aspartic proteases [1]: unable to inhibit
